In this experiment the target is NS3pro protease of dengue virus 2 (strain S16803) (dengue virus 2 (strain S16803)). The experiment is described as follows: cell-based or functional assay.

As to YGRKKRRQRRRPPQGGGSSPILSITISEDG [peptide NS2Bden2+TAT (peptide 1 of table 1)], the “IC50 of inhibition of DV2 infection, plaque reduction neutralization assay in Vero cells” value was in the range of 50 to 60 µM.
